This note sets out measurements from PMC4866770 (PLoS ONE, 2016).

For the assay, the target named is amyloid precursor protein (APP) (human (endogenous in HEK293), UniProt P05067 18-770). Nature of the assay: cell-based or functional assay.
amyloid precursor protein (APP), sequence (P05067 18-770): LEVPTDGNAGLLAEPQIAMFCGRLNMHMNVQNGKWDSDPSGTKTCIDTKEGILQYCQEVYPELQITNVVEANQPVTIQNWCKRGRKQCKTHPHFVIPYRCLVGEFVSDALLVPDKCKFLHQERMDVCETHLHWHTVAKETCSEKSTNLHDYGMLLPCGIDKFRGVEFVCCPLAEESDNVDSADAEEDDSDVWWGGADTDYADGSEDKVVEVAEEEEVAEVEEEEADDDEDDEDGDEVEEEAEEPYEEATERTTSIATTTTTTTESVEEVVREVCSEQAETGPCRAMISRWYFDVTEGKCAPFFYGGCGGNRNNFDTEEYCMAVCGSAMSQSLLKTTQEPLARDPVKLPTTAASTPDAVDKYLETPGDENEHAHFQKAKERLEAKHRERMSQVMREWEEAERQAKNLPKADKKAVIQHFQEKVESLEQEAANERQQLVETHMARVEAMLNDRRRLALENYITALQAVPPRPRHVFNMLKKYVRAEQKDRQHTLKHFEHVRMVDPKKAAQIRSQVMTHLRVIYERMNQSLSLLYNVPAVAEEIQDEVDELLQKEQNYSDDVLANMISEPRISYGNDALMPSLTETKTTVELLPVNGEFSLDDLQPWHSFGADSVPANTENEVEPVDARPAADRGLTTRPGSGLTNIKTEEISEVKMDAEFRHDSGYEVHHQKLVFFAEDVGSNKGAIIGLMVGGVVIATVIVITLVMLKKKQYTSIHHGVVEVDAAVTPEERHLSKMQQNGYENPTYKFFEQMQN

B1: FLAG-Fe65 (natural protein, human, UniProt O00213-2 1-708, looked up)
chain: MSVPSSLSQSAINANSHGGPALSLPLPLHAAHNQLLNAKLQATAVGPKDLRSAMGEGGGPEPGPANAKWLKEGQNQLRRAATAHRDQNRNVTLTLAEEASQEPEMAPLGPKGLIHLYSELELSAHNAANRGLRGPGLIISTQEQGPDEGEEKAAGEAEEEEEDDDDEEEEEDLSSPPGLPEPLESVEAPPRPQALTDGPREHSKSASLLFGMRNSAASDEDSSWATLSQGSPSYGSPEDTDSFWNPNAFETDSDLPAGWMRVQDTSGTYYWHIPTGTTQWEPPGRASPSQGSSPQEESQLTWTGFAHGEGFEDGEFWKDEPSDEAPMELGLKEPEEGTLTFPAQSLSPEPLPQEEEKLPPRNTNPGIKCFAVRSLGWVEMTEEELAPGRSSVAVNNCIRQLSYHKNNLHDPMSGGWGEGKDLLLQLEDETLKLVEPQSQALLHAQPIISIRVWGVGRDSGRDFAYVARDKLTQMLKCHVFRCEAPAKNIATSLHEICSKIMAERRNARCLVNGLSLDHSKLVDVPFQVEFPAPKNELVQKFQVYYLGNVPVAKPVGVDVINGALESVLSSSSREQWTPSHVSVAPATLTILHQQTEAVLGECRVRFLSFLAVGRDVHTFAFIMAAGPASFCCHMFWCEPNAASLSEAVQAACMLRYQKCLDARSQASTSCLPAPPAESVARRVGWTVRRGVQSLWGSLKPKRLGAHTP
On to B1, for which the “GAL4-dependent firefly luciferase reporter in HEK293 with pMST-APP (full-length APP fused to the GAL4 DNA binding domain): increase of APP transcriptional activity” value was roughly 14 fold.
